Measurements reported in US20210340516A1, “COMPOSITIONS CONTAINING ARGINASE 1 FOR THE TREATMENT OF NEUROVASCULAR AND RETINAL VASCULAR DISORDERS” (Augusta University Research Institute, Inc., priority 2020, published 2021).

Assays:
[1] = system: bone marrow-derived macrophages (BMDMs); experiment: PEG-A1 intracellular uptake by bone marrow-derived macrophages (anti-PEG Western blot); format: cell-based, mouse; settings: BMDMs treated overnight, washed with PBS
Description: BMDMs: Bone marrow-derived macrophages (BMDMs) were freshly isolated from WT mice and differentiated in culture as described in Fouda, A Y, et al., Cell death & Disease, 9:1001 (2018). To determine PEG-A1 intracellular uptake by macrophages, BMDMs were treated overnight with PEG-A1 or vehicle and then washed several times with phosphate buffered saline (PBS) before collection in RIPA buffer for Western blotting.
Previous studies have shown that myeloid specific A1 deletion using the LysM cre mice leads to increased neurodegeneration in the retinal IR model (Fouda, A Y, et al., Cell death & Disease, 9:1001 (2018)). […] To test the effect of possible neuronal A1 deletion on the previously reported IR outcome in these mice, control and myeloid-specific A1 KO retina explants were subjected to OGD/R (3 hours/21 hours) (FIG. 21A). The explant model excludes any effects due to infiltrating myeloid cells. […] To further test if macrophage can incorporate PEG-A1, BMDMs were treated with PEG-A1 or vehicle overnight and then washed with PBS several times before Western blotting.

[2] = system: WT pups subjected to oxygen-induced retinopathy (OIR); experiment: OIR mouse model: morphometric analysis of vaso-obliteration and neovascularization on lectin-labeled retinal flat mounts; format: in vivo
From the text: OIR mouse model: Wild type (WT) or heterozygous A1 knock out (A1^+/−) mice and their wild type (WT) littermates were subjected to oxygen induced retinopathy (OIR). Because deletion of both copies of A1 is lethal due to hyperammonemia, mice lacking 1 copy of A1 were used which is sufficient to dampen its activity (Zhang, et al., Am J Pathol, 175:891-902 (2009); Elms, et al., Diabetologia, 56:654-662 (2013); Patel, et al., Front Immunol, 4:173 (2014)). OIR was induced in newborn mice according to the protocol of Smith, et al. with some adjustments (Connor, et al., Nature Protocols, 4:1565-1573 (2009)). On P7 (postnatal day 7), mice were placed along with their dams in a hyperoxia (70% oxygen) chamber for up to 5 days, after which they were transferred back to room air on P12. The 70% oxygen concentration was used for experiments involving A1^+/− mice based on preliminary experiments showing intolerance of the A1^+/− mice to 75% oxygen treatment. Mice were sacrificed at various times and retinas were collected for analyses (FIG. 1A-1C). In all experiments, mice were compared to their littermate controls. Then data were pooled together to minimize variability between litters due to differences in litter size and weight gain (Kim, et al., Eye and Brain, 8:67-79 (2016)). These experiments were performed in accordance with the ARVO Statement for the Use of Animals in Ophthalmic and Vision Research, and were approved by the institutional animal care and use committee.
Analysis of vaso-obliteration and neovascularization: Eyeballs were fixed in 4% paraformaldehyde (PFA) overnight. Retina flat-mounts were dissected and then blocked and permeabilized in phosphate-buffered saline (PBS) containing 10% goat serum and 1% Triton X-100 (Sigma-Aldrich) for 30 minutes. Retinas were then immunolabeled with Alex594-labeled Griffonia simplicifolia isolectin B4 (1:200; Invitrogen, Carlsbad, Calif.) overnight at 4° C. Retinas were flat-mounted in mounting medium (Vectashield; Vector Laboratories, Burlingame, Calif.) and images were captured using fluorescence microscopy (Axioplan 2, Carl Zeiss Vision Inc.). Areas of central capillary dropout (vaso-obliteration, VO) and vitreoretinal neovascular tufts (neovascularization, NV) were quantified in a masked fashion using ImageJ software (NIH, Bethesda, Md.) (Connor, et al., Nature Protocols, 4:1565-1573 (2009); Patel, et al., Am J Pathol, 184:3040-3051 (2014)). High-magnification images were acquired to perform vessel sprouting analysis. Vessel sprouts were counted as previously described Patel, et al., Am J Pathol, 184:3040-3051 (2014)).
PBS was used as vehicle control. Pups were anesthetized before treatment by intraperitoneal (i.p.) injection of ketamine/xylazine mixture. Intravitreal injections were performed using a 36-gauge NanoFil needle mounted to a 10-μL Hamilton syringe (World Precision Instruments). Two treatment strategies were employed. […] The P9 time point was selected based on the fact that vaso-obliteration occurs within the first 48 hours of hyperoxia treatment (Connor, et al., Nature Protocols, 4:1565-1573 (2009); Lange, et al., Graefe's archive for clinical and experimental ophthalmology, 247:1205-1211 (2009); Gu, et al., Investigative ophthalmology & visual science, 43:496-502 (2002)).

[3] = system: WT pups subjected to oxygen-induced retinopathy (OIR); experiment: OIR mouse model: Western blotting and immunolabelling of retina (A1, cleaved PARP, calbindin horizontal cells); format: in vivo
Description: Western blotting analysis: Retina lysates were homogenized in RIPA buffer supplemented with protease and phosphatase inhibitors. Samples (20 μg protein) were run on 10% sodium dodecyl sulfate-polyacrylamide gel electrophoresis, transferred to nitrocellulose membrane and reacted with primary antibody followed by horseradish peroxidase-linked secondary antibody and enhanced chemiluminescence (Amersham Pharmacia). β-actin (mouse monoclonal antibody, 1:5000, Sigma-Aldrich) or GAPDH served as a loading control. The following primary antibodies were used: GFAP, PARP, A1.
Immunofluorescence labelling: PFA fixed eyeballs were washed in PBS and cryoprotected. Cryostat sections (15 μm) were permeabilized in 1% Triton (20 min) and blocked in 10% normal goat serum containing 1% BSA (one hour). Sections were then incubated overnight in primary antibodies at 4° C. On day two, the sections were incubated at room temperature for 1 hour in fluorescent conjugated secondary antibodies (Life Technologies), washed in PBS and mounted with Vectashield (Vector Laboratories)
PBS was used as vehicle control. Pups were anesthetized before treatment by intraperitoneal (i.p.) injection of ketamine/xylazine mixture. Intravitreal injections were performed using a 36-gauge NanoFil needle mounted to a 10-μL Hamilton syringe (World Precision Instruments). Two treatment strategies were employed. […]

[4] = intravitreal 6.8 ng in 0.5 μL at P12, analysis at P17

B1: PEG-A1: recombinant human arginase (rhArg) covalently attached to methoxy polyethylene glycol (mPEG-SPA; MW 5,000) via succinamide propionic acid (SPA) linker (protein, UniProt P05089 1-322, looked up)
Arginase-1: MSAKSRTIGIIGAPFSKGQPRGGVEEGPTVLRKAGLLEKLKEQECDVKDYGDLPFADIPNDSPFQIVKNPRSVGKASEQLAGKVAEVKKNGRISLVLGGDHSLAIGSISGHARVHPDLGVIWVDAHTDINTPLTTTSGNLHGQPVSFLLKELKGKIPDVPGFSWVTPCISAKDIVYIGLRDVDPGEHYILKTLGIKYFSMTEVDRLGIGKVMEETLSYLLGRKKRPIHLSFDVDGLDPSFTPATGTPVVGGLTYREGLYITEEIYKTGLLSGLDIMEVNPSLGKTPEEVTRTVNTAVAITLACFGLAREGNHKPIDYLNPPK
modifications: mPEG-SPA 5 kDa conjugate
notes: recombinant human arginase (rhArg) covalently attached to methoxy polyethylene glycol (mPEG-SPA; MW 5,000) via succinamide propionic acid (SPA) linker
anti-PEG band in macrophage cell lysate (intracellular uptake) [1]: strong band | hyperoxia-induced vaso-obliteration (capillary dropout area) ([2]; intravitreal 6.8 ng in 0.5 μL at P7, hyperoxia, P9): does not affect | avascular area [2, 4]: avascular area was reduced | endothelial tip cells (vessel sprouts) per field of view [2, 4]: two-fold increase | neovascular tufts (pathological neovascularization) [2, 4]: reduced neovascular tufts | lectin-positive vitreal macrophages after OIR ([2]; intravitreal PEG-A1, vs vehicle): increased | OIR-induced calbindin-positive horizontal cell loss ([3]; P17, compared to vehicle treatment): significantly rescued | cleavage of the pro-apoptotic marker PARP (Western blot) ([3]; P17 OIR retinal lysates): significantly reduced
